Assay results published in patent US20240101638A1 (CURRUS BIOLOGICS, published 2024).
Several values for one entry are separate records, joined by “and”; a condition that tells them apart may be missing. Equal entries are not always repeated.

Biological target: T1, Mesothelin (Homo sapiens (Human), UniProt Q13421 296-598)
T1 construct: Soluble analyte in SPR at 0.15-111 nM
Test: SPR, antibody as ligand, mesothelin as analyte

T1 sequence (Q13421 other isoform, or with tags, fused parts or gaps limits assumed): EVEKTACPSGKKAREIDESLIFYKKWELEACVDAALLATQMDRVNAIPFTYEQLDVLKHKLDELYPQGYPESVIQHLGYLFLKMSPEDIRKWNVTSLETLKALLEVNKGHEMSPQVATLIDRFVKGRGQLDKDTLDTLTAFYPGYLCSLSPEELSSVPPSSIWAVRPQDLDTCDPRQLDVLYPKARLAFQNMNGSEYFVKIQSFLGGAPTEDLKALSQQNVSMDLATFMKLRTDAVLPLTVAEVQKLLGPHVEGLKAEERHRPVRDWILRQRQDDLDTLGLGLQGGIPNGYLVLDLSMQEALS

- Kd: 0.912 nM and 0.658 nM
- koff: 0.000189 s⁻¹ and 0.000132 s⁻¹
- kon: 207000 M⁻¹ s⁻¹ and 201000 M⁻¹ s⁻¹
B1: 7B1 IgG1 LALA anti-mesothelin antibody (antibody, V domains shown)
VH: EVHLVESGGGLVQPGGSLRLSCAASGFTFSRYWMSWVRQAQGKGLEWVASIKQAGSEKTYVDSVKGRFTISRDNAKNSLSLQMNSLRAEDTAVYYCAREGAYYYDSASYYPYYYYYSMDVWGQGTTVTVSS
VL: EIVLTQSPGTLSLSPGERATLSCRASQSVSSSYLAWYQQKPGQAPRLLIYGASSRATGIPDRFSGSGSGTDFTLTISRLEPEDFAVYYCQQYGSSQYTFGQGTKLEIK
notes: Tested as IgG1 with LALA mutations; It was the immobilised ligand in the SPR; two samples were measured; also called 7B1 IgG1 LALA AA cAb7385-10.16; 7b1 IgG1 LALA - Sample 1
